From patent publication US20250270339A1

Columns and labels:
[1] = target: huTfR Apical Domain-Avi-His (human); test: SPR (Carterra LSA), 2+2 captured
[2] = target: Cyno TfR apical permuted N-term Avi-His (cynomolgus); test: SPR (Carterra LSA), 2+2 captured
Sequence of Cyno TfR apical permuted N-term Avi-His (cynomolgus) (chain, as listed by the source limits assumed): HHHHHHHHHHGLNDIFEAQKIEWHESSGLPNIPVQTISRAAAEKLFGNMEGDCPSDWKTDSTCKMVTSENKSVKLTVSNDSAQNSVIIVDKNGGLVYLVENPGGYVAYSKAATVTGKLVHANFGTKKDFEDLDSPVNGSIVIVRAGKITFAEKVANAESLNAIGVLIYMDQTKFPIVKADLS

Sequence of huTfR Apical Domain-Avi-His (human) (chain, as listed by the source limits assumed): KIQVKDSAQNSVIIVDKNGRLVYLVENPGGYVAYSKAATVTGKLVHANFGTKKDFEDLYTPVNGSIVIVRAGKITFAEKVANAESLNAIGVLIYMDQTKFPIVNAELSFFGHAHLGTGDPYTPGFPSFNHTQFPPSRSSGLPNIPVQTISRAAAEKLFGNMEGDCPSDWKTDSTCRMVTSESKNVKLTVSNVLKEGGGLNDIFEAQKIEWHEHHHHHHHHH

Kd [1] [nM]	Kd [2] [nM]	Binder
28	17	TFR.15.WH8.1 2+2 anti-TfR bispecific antibody (bispecific antibody, part only; not given: isotype IgG backbone and linker, not shown: another chain or arm of the molecule; a dimerising Fc or GST; large carriers; small tags and cut ends) scFv: QVQLVQSGAEVKKPGASVKVSCKASGYTFTSYYMHWVRQAPGQGLEWMGNIYPGSGSSNYAQKFQGRVTMTRDTSTSTVYMELSSLRSEDTAVYYCTRSSYYGNFDTMDNWGQGTTVTVSSGGSEGKSSGSGSESKSTGGSEIVLTQSPATLSLSPGERATLSCRASSSIRYMNWYQQKPGQAPRRLIYDTSNRATGIPARFSGSGSGTDFTLTISSLEPEDFAVYYCHQRSSYPWTFGGGTKVEIK
62	40	TFR.15.WH8.1.42Q 2+2 anti-TfR bispecific antibody (bispecific antibody, part only; not given: isotype IgG backbone and linker, not shown: another chain or arm of the molecule; a dimerising Fc or GST; large carriers; small tags and cut ends) scFv: QVQLVQSGAEVKKPGASVKVSCKASGYTFTSYYMHWVRQAPGQGLEWMGNIYPGSGSSNYAQKFQGRVTMTRDTSTSTVYMELSSLRSEDTAVYYCTRSSYYGNFDTMDNWGQGTTVTVSSGGSEGKSSGSGSESKSTGGSEIVLTQSPATLSLSPGERATLSCRASSSIRQMNWYQQKPGQAPRRLIYDTSNRATGIPARFSGSGSGTDFTLTISSLEPEDFAVYYCHQRSSYPWTFGGGTKVEIK
280	2200	TFR.15.WH8.1.26H 2+2 anti-TfR bispecific antibody (bispecific antibody, part only; not given: isotype IgG backbone and linker, not shown: another chain or arm of the molecule; a dimerising Fc or GST; large carriers; small tags and cut ends) scFv: QVQLVQSGAEVKKPGASVKVSCKASGYTFTSYYMHWVRQAPGQGLEWMGNIYPGSGSSNYAQKFQGRVTMTRDTSTSTVYMELSSLRSEDTAVYYCTRSSYHGNFDTMDNWGQGTTVTVSSGGSEGKSSGSGSESKSTGGSEIVLTQSPATLSLSPGERATLSCRASSSIRYMNWYQQKPGQAPRRLIYDTSNRATGIPARFSGSGSGTDFTLTISSLEPEDFAVYYCHQRSSYPWTFGGGTKVEIK
140	47	TFR.15.WH8.1.24N 2+2 anti-TfR bispecific antibody (bispecific antibody, part only; not given: isotype IgG backbone and linker, not shown: another chain or arm of the molecule; a dimerising Fc or GST; large carriers; small tags and cut ends) scFv: QVQLVQSGAEVKKPGASVKVSCKASGYTFTSYYMHWVRQAPGQGLEWMGNIYPGSGSSNYAQKFQGRVTMTRDTSTSTVYMELSSLRSEDTAVYYCTRSNYYGNFDTMDNWGQGTTVTVSSGGSEGKSSGSGSESKSTGGSEIVLTQSPATLSLSPGERATLSCRASSSIRYMNWYQQKPGQAPRRLIYDTSNRATGIPARFSGSGSGTDFTLTISSLEPEDFAVYYCHQRSSYPWTFGGGTKVEIK
510	690	TFR.15.WH8.1.42S 2+2 anti-TfR bispecific antibody (bispecific antibody, part only; not given: isotype IgG backbone and linker, not shown: another chain or arm of the molecule; a dimerising Fc or GST; large carriers; small tags and cut ends) scFv: QVQLVQSGAEVKKPGASVKVSCKASGYTFTSYYMHWVRQAPGQGLEWMGNIYPGSGSSNYAQKFQGRVTMTRDTSTSTVYMELSSLRSEDTAVYYCTRSSYYGNFDTMDNWGQGTTVTVSSGGSEGKSSGSGSESKSTGGSEIVLTQSPATLSLSPGERATLSCRASSSIRSMNWYQQKPGQAPRRLIYDTSNRATGIPARFSGSGSGTDFTLTISSLEPEDFAVYYCHQRSSYPWTFGGGTKVEIK
160	88	TFR.15.WH8.1.42A 2+2 anti-TfR bispecific antibody (bispecific antibody, part only; not given: isotype IgG backbone and linker, not shown: another chain or arm of the molecule; a dimerising Fc or GST; large carriers; small tags and cut ends) scFv: QVQLVQSGAEVKKPGASVKVSCKASGYTFTSYYMHWVRQAPGQGLEWMGNIYPGSGSSNYAQKFQGRVTMTRDTSTSTVYMELSSLRSEDTAVYYCTRSSYYGNFDTMDNWGQGTTVTVSSGGSEGKSSGSGSESKSTGGSEIVLTQSPATLSLSPGERATLSCRASSSIRAMNWYQQKPGQAPRRLIYDTSNRATGIPARFSGSGSGTDFTLTISSLEPEDFAVYYCHQRSSYPWTFGGGTKVEIK
5.6	2.6	TFR.15.WH8.1.24H 2+2 anti-TfR bispecific antibody (bispecific antibody, part only; not given: isotype IgG backbone and linker, not shown: another chain or arm of the molecule; a dimerising Fc or GST; large carriers; small tags and cut ends) scFv: QVQLVQSGAEVKKPGASVKVSCKASGYTFTSYYMHWVRQAPGQGLEWMGNIYPGSGSSNYAQKFQGRVTMTRDTSTSTVYMELSSLRSEDTAVYYCTRSHYYGNFDTMDNWGQGTTVTVSSGGSEGKSSGSGSESKSTGGSEIVLTQSPATLSLSPGERATLSCRASSSIRYMNWYQQKPGQAPRRLIYDTSNRATGIPARFSGSGSGTDFTLTISSLEPEDFAVYYCHQRSSYPWTFGGGTKVEIK
190	60	TFR.15.WH8.1.42A.LH 2+2 anti-TfR bispecific antibody (bispecific antibody, part only; not given: isotype IgG backbone and linker, not shown: another chain or arm of the molecule; a dimerising Fc or GST; large carriers; small tags and cut ends) scFv: EIVLTQSPATLSLSPGERATLSCRASSSIRAMNWYQQKPGQAPRRLIYDTSNRATGIPARFSGSGSGTDFTLTISSLEPEDFAVYYCHQRSSYPWTFGGGTKVEIKGGSEGKSSGSGSESKSTGGSQVQLVQSGAEVKKPGASVKVSCKASGYTFTSYYMHWVRQAPGQGLEWMGNIYPGSGSSNYAQKFQGRVTMTRDTSTSTVYMELSSLRSEDTAVYYCTRSSYYGNFDTMDNWGQGTTVTVSS
	74	TFR.15.WH8.1.42A.3x(G4S) 2+2 anti-TfR bispecific antibody (bispecific antibody, part only; not given: isotype IgG backbone and linker, not shown: another chain or arm of the molecule; a dimerising Fc or GST; large carriers; small tags and cut ends) scFv: QVQLVQSGAEVKKPGASVKVSCKASGYTFTSYYMHWVRQAPGQGLEWMGNIYPGSGSSNYAQKFQGRVTMTRDTSTSTVYMELSSLRSEDTAVYYCTRSSYYGNFDTMDNWGQGTTVTVSSGGGGSGGGGSGGGGSEIVLTQSPATLSLSPGERATLSCRASSSIRAMNWYQQKPGQAPRRLIYDTSNRATGIPARFSGSGSGTDFTLTISSLEPEDFAVYYCHQRSSYPWTFGGGTKVEIK
150	100	TFR.15.WH8.1.42A.L1 2+2 anti-TfR bispecific antibody (bispecific antibody, part only; not given: isotype IgG backbone and linker, not shown: another chain or arm of the molecule; a dimerising Fc or GST; large carriers; small tags and cut ends) scFv: QVQLVQSGAEVKKPGASVKVSCKASGYTFTSYYMHWVRQAPGQGLEWMGNIYPGSGSSNYAQKFQGRVTMTRDTSTSTVYMELSSLRSEDTAVYYCTRSSYYGNFDTMDNWGQGTTVTVSSSPNSASHSGSAPQTSSAPGSQEIVLTQSPATLSLSPGERATLSCRASSSIRAMNWYQQKPGQAPRRLIYDTSNRATGIPARFSGSGSGTDFTLTISSLEPEDFAVYYCHQRSSYPWTFGGGTKVEIK
